In patent publication US20140295512A1, “Ketol-Acid Reductoisomerases With Improved Performance Properties” (CALIFORNIA INSTITUTE OF TECHNOLOGY, priority 2011, published 2014):

B1: Se1_KARI: Slackia exigua (ATCC 700122) ketol-acid reductoisomerase, wild type, SEQ ID NO: 2 (protein, listed as Slackia exigua)
chain: MSVKTKEKEMAVTILYEQDVDPKVIQGLKVGIIGYGSQGHAHALNLMDSGVDVRVGLREGSSSWKTAEEAGLKVTDMDTAAEEADVIMVLVPDEIQPKVYQEHIAAHLKAGNTLAFAHGFNIHYGYIVPPEDVNVIMCAPKGPGHIVRRQFTEGSGVPDLACVQQDATGNAWDIVLSYCWGVGGARSGIIKATFAEETEEDLFGEQAVLCGGLVELVKAGFETLTEAGYPPELAYFECYHEMKMIVDLMYESGIHFMNYSISNTAEYGEYYAGPKVINEQSREAMKEILKRIQDGSFAQEFVDDCNNGHKRLLEQREAINTHPIETTGAQIRSMFSWIKKED
B2: E. coli IlvC: Escherichia coli ketol-acid reductoisomerase (ilvC), wild type (protein, UniProt P05793 2-491, looked up)
Ketol-acid reductoisomerase …: ANYFNTLNLRQQLAQLGKCRFMGRDEFADGASYLQGKKVVIVGCGAQGLNQGLNMRDSGLDISYALRKEAIAEKRASWRKATENGFKVGTYEELIPQADLVINLTPDKQHSDVVRTVQPLMKDGAALGYSHGFNIVEVGEQIRKDITVVMVAPKCPGTEVREEYKRGFGVPTLIAVHPENDPKGEGMAIAKAWAAATGGHRAGVLESSFVAEVKSDLMGEQTILCGMLQAGSLLCFDKLVEEGTDPAYAEKLIQFGWETITEALKQGGITLMMDRLSNPAKLRAYALSEQLKEIMAPLFQKHMDDIISGEFSSGMMADWANDDKKLLTWREETGKTAFETAPQYEGKIGEQEYFDKGVLMIAMVKAGVELAFETMVDSGIIEESAYYESLHELPLIANTIARKRLYEMNVVISDTAEYGNYLFSYACVPLLKPFMAELQPGDLGKAIPEGAVDNGQLRDVNEAIRSHAIEQVGKKLRGYMTDMKRIAVAG

Tests used:
[1] = tested on: S. cerevisiae host strain GEVO3956; test: Shake flask isobutanol fermentations with KARI as limiting pathway enzyme; assay type: cell-based; conditions: mean of 3 experiments
Source text: In this example, a series of KARI genes were individually expressed from a yeast promoter in conjunction with other components of an isobutanol production pathway in yeast such that KARI was the limiting enzyme in the pathway and the amount of isobutanol produced during a fermentation was dependent on the KARI activity level. In this system, the S. cerevisiae host strain GEVO3956 was used to produce isobutanol when supplied with an isobutanol production pathway plasmid expressing ALS and KIVD, and a low copy number plasmid expressing KARI, DHAD, and ADH enzymes.
Shake flask fermentations using GEVO3956 carrying these individual plasmids were performed together with GEVO3956 carrying pGV3022 (derived from pGV3009 but containing the E. coli ilvC-coSc gene expressed from the Sc_PDC1^−350 promoter) and GEVO3956 carrying pGV3012 (equivalent to pGV3009 lacking the Sc_PDC1^−350 promoter and KARI gene) for comparison of isobutanol production. The shake flask fermentations were performed as follows. The strains were grown overnight in 3 mL of YPD medium containing 1% v/v ethanol and 0.1 g/L G418 at 30° C. and 250 rpm. The OD600 of these cultures was determined after overnight growth and the appropriate amount of culture was added to 50 mL of YP medium containing 5% w/v glucose, 1% v/v ethanol. 200 mM MES, pH 6.5, and 0.1 g/L G418 to obtain an OD600 of 0.1 in 250 mL baffled flasks with sleeve caps. Cultures were incubated at 30° C. and 250 rpm overnight. The OD600 of these cultures was determined after overnight growth and the appropriate amount of culture to total 250 ODs was added to 50 mL Falcon tubes and centrifuged at 2700×g for 5 minutes. The supernatant was removed and cells were resuspended in 50 mL of YP medium containing 8% w/v glucose, 1% v/v ethanol, 200 mM MES, pH 6.5, and 0.1 g/L G418 to obtain a final OD600 of 5 OD per ml. At t=0 the OD600 of each flask was determined. The fermentation cultures were incubated at 30° C. and 250 rpm in non-baffled 250 mL flasks with vented screw cap tops. After 24, 48 and 72 hours of incubation, 1.5 mL of culture was removed into 1.5 mL microcentrifuge tubes from each culture. OD600 values were determined from the samples and the remainder of each sample was centrifuged for 10 min at 14,000 rpm in a microcentrifuge and 1 mL of the supernatant was removed to be submitted for gas chromatographic analysis. Analysis of volatile organic compounds, including ethanol and isobutanol, was performed on an Agilent 6890 gas chromatograph (GC) fitted with a 7683B liquid autosampler, a split/splitless injector port, a ZB-FFAP column (Phenomenex 30 m length, 0.32 mm ID, […] film thickness) connected to a flame ionization detector (FID). […]

[2] = KARI assay in 100-μL scale to measure acetolactate KM value; assay type: biochemical; conditions: for Km: NADPH, pH 7.0, read-out: KM (S)-2-acetolactate
Procedure: (§1) An assay buffer was prepared containing 100 mM potassium phosphate pH 7.0, 1 mM DTT, 10 mM MgCl2, and 200 μM NADPH (final concentrations). Five μL purified enzyme and 5 μL of varying concentrations of acetolactate (8-0.125 mM final) were placed into a flat-bottom assay plate (Evergreen Scientific). The reactions were initiated by addition of 90 μL assay buffer. The change in absorbance at 340 nm was monitored over 1 min in a plate reader (TECAN).

[3] = KARI assay in 100-μL scale to measure pH optimum; assay type: biochemical; conditions: pH 6.0-8.5, NADPH
Procedure: Assay buffers were prepared containing 100 mM potassium phosphate with pH values ranging from 6.0-8.5 in 0.5-steps, 1 mM DTT, 10 mM MgCl2, 2.5 mM acetolactate, and 200 μM NADPH (final concentrations). Ten μL purified enzyme were placed into a flat-bottom assay plate (Evergreen Scientific). The reactions were initiated by addition of 90 μL assay buffer. The change in absorbance at 340 nm was monitored over 1 min in a plate reader (TECAN).

[4] = KARI assay in 100-μL scale to measure MgCl2 KM value; assay type: biochemical; conditions: for Km: NADPH, pH 7.0, read-out: KM Mg^2+
Procedure: as §1, with “DTT, 2.5” for “DTT, 10”, “mM (S)-2-acetolactate,” for “mM MgCl2,”, “of MgCl2” for “of acetolactate (8-0.125 mM final)”

[5] = KARI assay in 1-mL scale to measure NADPH KM value (Example 5); assay type: biochemical; conditions: for Km: Example 5, pH 7.0
Procedure: (§2) KARI activity was assayed kinetically by monitoring the decrease in NADPH or NADH concentration by measuring the change in absorbance at 340 nm. An assay buffer was prepared containing 100 mM potassium phosphate pH 7.0, 1 mM DTT, 2.5 mM (S)-2-acetolactate, and 10 mM MgCl2 (final concentrations in the 1-mL assay). Twenty μL purified enzyme and 960 μL of the assay buffer were placed into a 1-mL cuvette. The reaction was initiated by addition of 20 μL NADPH or NADH (200 μM final concentration) for a general activity assay. Michaelis-Menten constants for the cofactors were determined with varying concentrations of NADPH or NADH (200-12 μM final).

[6] = KARI assay in 1-mL scale to measure NADH KM value (Example 5); assay type: biochemical; conditions: for Km: Example 5, pH 7.0
Procedure: as §2

Molecule | 48 h isobutanol Titer [1] [g/L] | 72 h isobutanol Titer [1] [g/L] | KM, fold lower than the Ki for R-DHIV [2] [fold] | Km [2] [µM] | optimum pH [3] | optimum pH ([3]; listed as S. exigua KARI) | Km [4] [mM] | Km [5] [µM] | kcat with NADH ([6]; Example 5) [s⁻¹] | Km [6] [mM] | KM for acetolactate, times higher than KM of S. exigua KARI [2] [fold] | KM, fold higher than the Ki for R-DHIV [2] [fold] | KM for Mg^2+, times higher than KM of S. exigua KARI [4] [fold] | NADPH KM, times higher than NADPH KM for S. exigua KARI [5] [fold] | NADH KM, times higher than NADH KM for S. exigua KARI [6] [fold] | Km ([6]; listed as E. coli KARI) [mM]
B1 | 2.82 ± 0.11 | 4.40 ± 0.34 | 10 | 170 | 7 | approximately 7.0 | 0.7 | < 1 | 0.4 | 0.045 ± 0.01 |  |  |  |  |  | 
B2 | 3.93 ± 1.16 | 4.72 ± 0.90 |  | 300 ± 100 | 7.5 |  | 2 ± 0.5 | 20 ± 3 |  | 1 | 32 | 3 | 2.9 | ~20 | 22 | ~1
